These results are taken from patent US11319368B2, “Treatment of hepatotoxicity with IL-11 antibody” (Singapore Health Services PTE LTD., priority 2019, dated 2022).

Data set [1] relates to AILI. The data set is described as follows: X209, NAC or NAC+X209 3 h after APAP in mice.
Experimental: Mice were administered anti-IL11Rα (X209) or IgG isotype control antibody at different times and doses, as described above or in the figure legends.
The levels of alanine transaminase (ALT) or aspartate aminotransferase (AST) in mouse serum and hepatocyte supernatant were measured using ALT Activity (ab105134, Abcam) or AST (ab105135, Abcam) Assay Kits. Liver glutathione sulfhydryl (GSH) measurements were performed using Glutathione Colorimetric Detection Kit (EIAGSHC, Thermo Fisher). All colorimetric assays were performed according to the manufacturer's protocol.
Western blots were carried out from hepatocyte and liver tissue lysates. Hepatocytes and tissues were homogenized in radioimmunoprecipitation assay (RIPA) buffer containing protease and phosphatase inhibitors (Thermo Fisher), followed by centrifugation to clear the lysate. Protein concentrations were determined by Bradford assay (Bio-Rad). Equal amounts of protein lysates were separated by SDS-PAGE, transferred to PVDF membrane, and subjected to immunoblot analysis for the indicated primary antibodies. Proteins were visualized using the ECL detection system (Pierce) with the appropriate secondary antibodies.
For data set [2], the system named is human hepatocytes. As to conditions: 0.2 mM H2O2, 24 hours.
Experimental: Human hepatocytes (5200, ScienCell) were grown and maintained at 37° C. and 5% CO2. Hepatocyte medium (5201, ScienCell) supplemented with 2% fetal bovine serum and 1% Penicillin-streptomycin was renewed every 2-3 days and cells were passaged at 80% confluence using standard trypsinization techniques. All the experiments were carried out at low cell passage (P2-P3) and cells were serum-starved for 16 hours prior to respective stimulations (24 hours) that were performed in serum-free hepatocyte media. Stimulated cells were compared to unstimulated cells that have been grown for the same duration under the same conditions (serum-free hepatocyte media), but without the stimuli. […] The levels of IL-11 in mouse serum and hepatocyte supernatant were quantified using Mouse IL-11 DuoSet (DY418 and DY008, R&D Systems) and Human IL-11 Quantikine ELISA kit [MUT], R&D Systems), respectively, according to the manufacturer's protocol.
The test system of data set [3] is rheumatoid synovial cells. The conditions noted are these: cited from earlier work.
The subject of data set [4] is liver. The conditions noted are these: single subcutaneous injection 500 μg kg^-1.
Experimental: (A) Effect of recombinant human IL11 (rhIL11, 10 ng ml^−1) or recombinant mouse IL11 (rmIL11, 10 ng ml^−1) on ERK, JNK and CASP3 activation status in mouse hepatocytes. (B) ALT levels in mouse hepatocyte supernatant following stimulation by rmIL11 (10 ng ml^−1) or by increasing doses of rhIL11 (1, 5, 10, 15 and 20 ng ml^−1). (C) Schematic of mice receiving a single subcutaneous injection of either saline, rhIL11, or rmIl11 (500 μg kg^−1). (D) Western blot analysis of hepatic p-ERK, p-JNK, and Cl. […] Dose-dependent inhibition effect of rhIL11 on rmIL11-induced (K) ALT secretion and (L) CASP3 activation by mouse hepatocytes. (A, B, K, L) 24 h. (B, K) Data are shown as mean±SD; (E, G) Data are shown as box-and-whisker with median (middle line), 25th-75th percentiles (box), and minimum-maximum values (whiskers). (B, K) Two-tailed, Tukey-corrected Student's t-test; (E) two-tailed Student's t-test; (G) two-tailed Dunnett's test.
The levels of alanine transaminase (ALT) or aspartate aminotransferase (AST) in mouse serum and hepatocyte supernatant were measured using ALT Activity (ab105134, Abcam) or AST (ab105135, Abcam) Assay Kits. […] All colorimetric assays were performed according to the manufacturer's protocol.
Western blots were carried out from hepatocyte and liver tissue lysates. […] Protein concentrations were determined by Bradford assay (Bio-Rad). […]
Data set [5] deals with human hepatocytes. The data set is described as follows: rhIL11 versus rmIL11 on human hepatocytes. Format: cell-based. As to conditions: 10 ng ml^-1.
Data set [6] concerns AILI. The data set is described as follows: rhIL11 or rmIL11 injection in APAP OD mice. Format: in vivo, mouse. The protocol:
FIGS. 10A to 10L. […] (A, B, K, L) 24 h. […] FC: fold change

Data set [7] has as its system mouse hepatocytes. The data set can be described thus: rhIL11 versus rmIL11 on mouse hepatocytes. Format: cell-based. The text has this:
Mouse hepatocytes (ABC-TC3928, AcceGen Biotech) were maintained in mouse hepatocyte medium (ABC-TM3928, AcceGen Biotech) supplemented with 1% Penicillin-streptomycin.

Data set [8] deals with primary human hepatocytes. The data set is described as follows: hyperIL11 or hyperIL6 stimulation of primary human hepatocytes, with or without sgp130. Format: cell-based.
Data set [9] concerns APAP overdose acute liver injury. The data set is described as follows: Severe APAP overdose in mice, anti-IL11 antibody (X203) 16 h before. The format is in vivo, mouse. The conditions noted are these: 20 mg/kg IP 16 hours before APAP 400 mg/kg; 24 hours after APAP.
In data set [10] the test system is primary human hepatocytes. The data set is described as follows: IL11 stimulation of primary human hepatocytes with sgp130 or sIL11Rα. Format: cell-based. The conditions noted are these: for effect on IL11-induced hepatocyte death and signaling: IL11 20 ng/ml, sgp130, sIL11Rα 1 μg/ml; for effect on ALT release from IL11-stimulated hepatocytes: increasing doses.
Data set [11] deals with kidney. The conditions noted are these: 100-1000 μg/kg, IP; 10 minutes prior to or 30-60 minutes following IR; cited from earlier work.

`CC(=O)N[C@@H](CS)C(=O)O` [NAC, N-acetyl-cysteine, reference compound]: the ALT reduction in [1] (3 h after APAP, NAC 500 mg kg^-1, X209 5 mg kg^-1) is given as 38%. In data set [1] (NAC 500 mg kg^-1 3 h after APAP), the “serum levels of ALT and AST” value is “reduced serum levels of ALT and AST”.
As for `OO` [H2O2, hydrogen peroxide], the “IL-11 upregulated in the supernatant” value in [2] came out at 10 fold.
For `COc1ccc2c(c1)c(CC(=O)O)c(C)n2C(=O)c1ccc(Cl)cc1` [indomethacin, reference compound], the “expression of IL-11” value in data set [3] is recorded as “reduction in the expression of IL-11”.
On to “interferon-gamma: interferon-gamma (IFNγ)”, for which the “expression of IL-11” value in [3] is listed as “reduction in the expression of IL-11”.

B1: rmIL11: recombinant mouse IL11 (UniProtKB: P47873, Genscript) (protein)
chain: PGPPAGSPRVSSDPRADLDSAVLLTRSLLADTRQLAAQMRDKFPADGDHSLDSLPTLAMSAGTLGSLQLPGVLTRLRVDLMSYLRHVQWLRRAGGPSLKTLEPELGALQARLERLLRRLQLLMSRLALPQAAPDQPVIPLGPPASAWGSIRAAHAILGGLHLTLDWAVRGLLLLKTRL
Turning to B1, the “hepatic ERK and JNK phosphorylation” value in [4] is “gradual ERK and immediate JNK activation”. Further, the “ERK and JNK signaling and hepatocyte death” value in [5] is “did not”. Further, the “hepatic GSH levels after APAP” value in data set [6] (APAP injury) is “did not”. In addition, the “protection against AILI” value in [6] (subcutaneous injection, APAP OD) is reported as “not protective”. Moreover, the “ERK and JNK phosphorylation, CASP3 cleavage” value in [7] (10 ng ml^-1, 24 h) is “stimulated ERK and JNK phosphorylation and induced CASP3 cleavage”. Also, in [7] (24 h), the “mouse hepatocyte cell death (ALT in supernatant)” value is “induced mouse hepatocyte cell death”.

B2: HyperIL11: IL11Rα:IL11 fusion protein which mimics the trans-signalling complex (SEQ ID NO:21) (protein)
chain: MSSSCSGLSRVLVAVATALVSASSPCPQAWGPPGVQYGQPGRSVKLCCPGVTAGDPVSWFRDGEPKLLQGPDSGLGHELVLAQADSTDEGTYICQTLDGALGGTVTLQLGYPPARPVVSCQAADYENFSCTWSPSQISGLPTRYLTSYRKKTVLGADSQRRSPSTGPWPCPQDPLGAARCVVHGAEFWSQYRINVTEVNPLGASTRLLDVSLQSILRPDPPQGLRVESVPGYPRRLRASWTYPASWPCQPHFLLKFRLQYRPAQHPAWSTVEPAGLEEVITDAVAGLPHAVRVSARDFLDAGTWSTWSPEAWGTPSTGPAGQSGGGGGSGGGSGGGSVPGPPPGPPRVSPDPRAELDSTVLLTRSLLADTRQLAAQLRDKFPADGDHNLDSLPTLAMSAGALGALQLPGVLTRLRADLLSYLRHVQWLRRAGGSSLKTLEPELGTLQARLDRLLRRLQLLMSRLALPQPPPDPPAPPLAPPSSAWGGIRAAHAILGGLHLTLDWAVRGLLLLKTRL
modifications: Hyper IL-11 (IL-11RAIL-11 fusion)
For B2, in data set [8] (2.5 ng/ml to 20 ng/ml, 24 h), the “ERK and JNK activation” value is “activated ERK and JNK in a dose-dependent manner”. Besides, the “alanine transaminase (ALT) in the media” value in data set [8] (dose range, 24 h) was “dose-dependent increase in alanine transaminase (ALT)”.

B3: X203: antagonist anti-IL11 antibody (Ng et al., Sci Transl Med. 2019) (antibody, V domains shown)
VH: EVQLQQSGPELVKPGASVKIPCKASGYTFTDYNMDWVKQSHGKSLEWIGDINPHNGGPIYNQKFTGKATLTVDKSSSTAYMELRSLTSEDTAVYYCARGELGHWYFDVWGTGTTVTVSS
VL: DIVLTQSPASLAVSLGQRATISCRASKSVSTSGYSYIHWYQQKPGQPPKLLIYLASNLDSGVPARFSGSGSGTDFTLNIHPVEEEDAATYYCQHSRDLPPTFGGGTKLEIK
Take B3: in data set [9], the “serum ALT levels” value is recorded as “substantial reduction” and the “serum AST levels” value is reported as “substantial reduction”.

B4: sIL11Rα: soluble IL11Rα (human IL11Rα, R&D systems) (protein, UniProt Q14626 24-370, looked up)
extracellular domain: SPCPQAWGPPGVQYGQPGRSVKLCCPGVTAGDPVSWFRDGEPKLLQGPDSGLGHELVLAQADSTDEGTYICQTLDGALGGTVTLQLGYPPARPVVSCQAADYENFSCTWSPSQISGLPTRYLTSYRKKTVLGADSQRRSPSTGPWPCPQDPLGAARCVVHGAEFWSQYRINVTEVNPLGASTRLLDVSLQSILRPDPPQGLRVESVPGYPRRLRASWTYPASWPCQPHFLLKFRLQYRPAQHPAWSTVEPAGLEEVITDAVAGLPHAVRVSARDFLDAGTWSTWSPEAWGTPSTGTIPKEIPAWGQLHTQPEVEPQVDSPAPPRPSLQPHPRLLDHRDSVEQVAVLA
modifications: extracellular domain
As to B4, in data set [10], the “effect on IL11-induced hepatocyte death and signaling” value is “unaffected”; the “effect on ALT release from IL11-stimulated hepatocytes” value is given as “no effect on ALT release”.

B5: PEGylated rhIL11: PEGylated rhIL11 (Lee et al. 2012) (conjugate, UniProt P20809 22-199, looked up)
Interleukin-11: PGPPPGPPRVSPDPRAELDSTVLLTRSLLADTRQLAAQLRDKFPADGDHNLDSLPTLAMSAGALGALQLPGVLTRLRADLLSYLRHVQWLRRAGGSSLKTLEPELGTLQARLDRLLRRLQLLMSRLALPQPPPDPPAPPLAPPSSAWGGIRAAHAILGGLHLTLDWAVRGLLLLKTRL
modifications: PEG
Turning to B5, the renoprotection result in [11] is listed as “The authors conclude that IL11 is renoprotective based on pre-”.

B6: sgp130: human soluble gp130 Fc, inhibitor of trans-signaling complexes acting through gp130 (protein)
chain: ELLDPCGYISPESPVVQLHSNFTAVCVLKEKCMDYFHVNANYIVWKTNHFTIPKEQYTIINRTASSVTFTDIASLNIQLTCNILTFGQLEQNVYGITIISGLPPEKPKNLSCIVNEGKKMRCEWDGGRETHLETNFTLKSEWATHKFADCKAKRDTPTSCTVDYSTVYFVNIEVWVEAENALGKVTSDHINFDPVYKVKPNPPHNLSVINSEELSSILKLTWTNPSIKSVIILKYNIQYRTKDASTWSQIPPEDTASTRSSFTVQDLKPFTEYVFRIRCMKEDGKGYWSDWSEEASGITYEDRPSKAPSFWYKIDPSHTQGYRTVQLVWKTLPPFEANGKILDYEVTLTRWKSHLQNYTVNATKLTVNLTNDRYLATLTVRNLVGKSDAAVLTIPACDFQATHPVMDLKAFPKDNMLWVEWTTPRESVKKYILEWCVLSDKAPCITDWQQEDGTVHRTYLRGNLAESKCYLITVTPVYADGPGSPESIKAYLKQAPPSKGPTVRTKKVGKNEAVLEWDQLPVDVQNGFIRNYTIFYRTIIGNETAVNVDSSHTEYTLSSLTSDTLYMVRMAAYTDEGGKDGPEFTFTTPKFAQGEIE
modifications: left off: a dimerising Fc or GST
In the case of B6, in data set [8] (increasing amounts of sgp130), the “hepatotoxic effects of hyperIL11 (ALT)” value was “inhibited the hepatotoxic effects of hyperIL11”. Further, in data set [8] (sgp130 with hyperIL11 or hyperIL6 20 ng/ml), the “signaling pathways downstream of hyperIL11 and hyperIL6” value is “blocked the activation of signaling pathways downstream of both hyperIL11 (p-ERK/p-JNK) and hyperIL6 (p-STAT3)”. Moreover, in data set [10], the “effect on IL11-induced hepatocyte death and signaling” value is on record as “unaffected”; the “effect on ALT release from IL11-stimulated hepatocytes” value is recorded as “no effect on ALT release”.
